Patent US20200199244A1 (published 2020)
Values joined by “and” are separate entries in the source; they are usually repeats but may differ in a detail not shown here. Equal entries are not always repeated. Each block holds one binder with its values, some of them ahead of it.

Legend:
[1] = target: T1, wild type human CD40 Fc fusion (human, UniProt P25942 21-193); assay: SPR ProteOn XPR36, CD40-Fc captured, dAb analyte
T1 construct: also called wt-hCD40; not shown: human IgG1 Fc

[2] = target: T2, human CD40 (H76R) Fc fusion (human, UniProt P25942 21-193); assay: SPR ProteOn XPR36, CD40-Fc captured, dAb analyte
T2 construct: As m1 with H76R; also called hCD40-M1; not shown: human IgG1 Fc

[3] = target: T3, human CD40 (W109L) Fc fusion (human, UniProt P25942 21-193); assay: SPR ProteOn XPR36, CD40-Fc captured, dAb analyte
T3 construct: As m1 with W109L; also called hCD40-M2; not shown: human IgG1 Fc

[4] = target: T4, human CD40 (W109R) Fc fusion (Chimpanzee CD40) (human, UniProt P25942 21-193); assay: SPR ProteOn XPR36, CD40-Fc captured, dAb analyte
T4 construct: As m1 with W109R (residue of chimpanzee CD40); also called hCD40-M3; not shown: human IgG1 Fc

[5] = target: T5, human CD40 (W109L, L121P) Fc fusion (human, UniProt P25942 21-193); assay: SPR ProteOn XPR36, CD40-Fc captured, dAb analyte
T5 construct: As m1 with W109L and L121P; also called hCD40-M4; not shown: human IgG1 Fc

[6] = target: T6, human CD40 (H76R, W109L, L121P) Fc fusion (human); assay: SPR ProteOn XPR36, CD40-Fc captured, dAb analyte
T6 construct: As m1 with H76R, W109L and L121P; also called hCD40-M5; not shown: human IgG1 Fc
T6 chain: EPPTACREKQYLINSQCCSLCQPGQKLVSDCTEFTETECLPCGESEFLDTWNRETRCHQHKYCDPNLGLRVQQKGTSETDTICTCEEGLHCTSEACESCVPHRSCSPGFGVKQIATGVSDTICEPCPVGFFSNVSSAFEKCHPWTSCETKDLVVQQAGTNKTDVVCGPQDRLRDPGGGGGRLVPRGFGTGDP

[7] = target: T7, wild type cynomolgus monkey CD40 Fc fusion (cynomolgus monkey; human); assay: SPR ProteOn XPR36, CD40-Fc captured, dAb analyte
T7 construct: also called wt-cyno-CD40; wt-cCD40; not shown: human IgG1 Fc
T7 chain: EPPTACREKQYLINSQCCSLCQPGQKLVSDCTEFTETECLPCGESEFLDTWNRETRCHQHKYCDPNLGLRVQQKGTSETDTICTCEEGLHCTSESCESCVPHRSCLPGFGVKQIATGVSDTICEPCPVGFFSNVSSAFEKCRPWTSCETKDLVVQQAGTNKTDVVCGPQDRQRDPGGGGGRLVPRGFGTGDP

[8] = target: T8, cynomolgus monkey CD40 on CD20+ B cells in blood (Macaca fascicularis (cynomolgus monkey), UniProt P25942 21-277 (human entry)); assay: flow cytometry on whole blood, PE-streptavidin detection, gate on CD20+ B cells
T8 construct: also called cynoCD40
T8 chain: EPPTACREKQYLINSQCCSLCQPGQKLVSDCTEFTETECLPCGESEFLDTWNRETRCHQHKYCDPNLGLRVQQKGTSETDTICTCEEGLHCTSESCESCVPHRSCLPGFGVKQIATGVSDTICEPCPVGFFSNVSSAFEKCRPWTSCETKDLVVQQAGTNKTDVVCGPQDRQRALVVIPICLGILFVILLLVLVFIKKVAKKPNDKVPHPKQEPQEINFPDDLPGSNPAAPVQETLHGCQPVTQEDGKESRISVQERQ
Description: (§1) 100 μl from each blood sample was aliquoted to 12×75 mm tubes and washed 3 times with FACS buffer (0.5% FBS/PBS/0.1% sodium azide). Tubes were centrifuged for 5 minutes at 1500 rpm, and supernatants were decanted between washes. Following the washes, tubes were placed on ice and incubated with human IgG for 5 minutes to block non-specific binding via Fc receptors.
(§2) For biotin-conjugated dAb detection, PE-labeled streptavidin (Invitrogen) and APC-labeled CD20 antibody (clone 2H7, BD Biosciences) were added to tubes and incubated 30 minutes at room temperature.
(§3) To lyse red blood cells and fix white blood cells following detection antibody incubation, FACS Lysing Solution (BD Biosciences) was added to all tubes, and samples were incubated for 15 minutes at room temperature. Samples were centrifuged and resuspended in FACS Lysing Solution, and analyzed by flow cytometry on a BD FACSCanto™, gating on CD20+ B cells for analysis. For marmoset samples, the CD20 antibody was not cross reactive; therefore analysis was performed on all lymphocytes as identified by forward and side scatter properties (size).

[9] = target: T9, rhesus macaque CD40 on CD20+ B cells in blood (rhesus macaque, UniProt F6SNI1 21-278); assay: as above
T9 construct: whole, on cells; also called rhesus CD40
Description: as §1, §2, §3

[10] = target: T10, marmoset CD40 on blood lymphocytes (marmoset, UniProt Q3LRP1 21-274); assay: flow cytometry on whole blood, PE-streptavidin detection, all lymphocytes by scatter
T10 construct: whole, on cells
Description: as §1, §2, §3

[11] = target: human CD40 on primary human cells (blood CD20+ B cells, tonsillar B cells, monocyte-derived dendritic cells) (human, UniProt P25942 21-277); assay: flow cytometry on human whole blood, PE-streptavidin detection, gate on CD20+ B cells
Description: as §1, §2, §3

[12] = target: T3, human CD40 (W109L) Fc fusion; assay: SPR ProteOn XPR36;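 also: surface plasmon resonance with CD40-Fc fusions captured through their Fc on an anti-human IgG chip, sensorgrams reference-subtracted against surfaces lacking CD40-Fc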
Description: (§4) Assays were performed on a BioRad ProteOn XPR36 SPR instrument. The SPR surfaces were prepared by immobilizing 8 μg/ml anti-human IgG(Fc) antibody (Biacore/GE Healthcare) in 10 mM sodium acetate pH 4.5 on a BioRad GLC sensor chip using standard ethyl(dimethylaminopropyl) carbodiimide (EDC)/N-hydroxysuccinimide (NHS) chemistry, with ethanolamine blocking. The running buffer for immobilization and kinetic binding analysis was 10 mM sodium phosphate, 130 mM sodium chloride, 0.05% tween 20, pH 7.1. CD40-Fc fusion proteins at concentrations of 20 μg/ml were captured in the vertical orientation on these surfaces via the Fc tail, and reference surfaces lacking CD40-Fc proteins were used for reference subtraction. […] The surfaces were regenerated in both horizontal and vertical orientations with 30 s pulses of 3 M MgCl₂ followed by running buffer at 60 μl/min. Sensogram data was double-referenced and then fitted to a 1:1 Langmuir model using BioRad ProteOn Manager V.2.1.0.38 software, to determine the association rate constant (ka), the dissociation rate constant (kd), and the equilibrium dissociation constant (KD).

[13] = target: T4, human CD40 (W109R) Fc fusion …; assay: SPR ProteOn XPR36;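 also: surface plasmon resonance with CD40-Fc fusions captured through their Fc on an anti-human IgG chip, sensorgrams reference-subtracted against surfaces lacking CD40-Fc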
Description: as §4

[14] = target: T5, human CD40 (W109L, L121P) Fc fusion; assay: SPR ProteOn XPR36;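 also: surface plasmon resonance with CD40-Fc fusions captured through their Fc on an anti-human IgG chip, sensorgrams reference-subtracted against surfaces lacking CD40-Fc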
Description: as §4

[15] = target: T6, human CD40 (H76R, W109L, L121P) Fc …; assay: SPR ProteOn XPR36;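 also: surface plasmon resonance with CD40-Fc fusions captured through their Fc on an anti-human IgG chip, sensorgrams reference-subtracted against surfaces lacking CD40-Fc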
Description: as §4

[16] = target: T7, wild type cynomolgus monkey CD40 Fc …; assay: SPR ProteOn XPR36
Description: as §4

[17] = target: T8, cynomolgus monkey CD40 on CD20+ B cells …; assay: flow cytometry on whole blood, anti-PEG detection, gate on CD20+ B cells
Description: as §1
(§5) Samples were washed once in FACS buffer, then incubated with an APC-labeled CD20 antibody (clone 2H7, BD Biosciences) and PE labeled-anti-mouse IgG (Fcγ1 specific; Calbiochem) for an additional 30 minutes on ice.
as §3

[18] = target: T9, rhesus macaque CD40 on CD20+ B cells in …; assay: as above
Description: as §1, §5, §3

[19] = target: T10, marmoset CD40 on blood lymphocytes; assay: flow cytometry on whole blood, anti-PEG detection, all lymphocytes by scatter
Description: as §1, §5, §3

[20] = target: T11, human CD40 (W109L) Fc fusion (human, UniProt P25942 21-193); assay: SPR, ProteOn XPR36; CD40-Fc captured, dAb analyte
T11 construct: Same construct as wt-hCD40 with W109L; also called hCD40-M2; hCD40 M2 (W109L); not shown: human IgG1 Fc

[21] = target: T12, human CD40 (W109R) Fc fusion (Chimpanzee CD40) (human, UniProt P25942 21-193); assay: SPR, ProteOn XPR36; CD40-Fc captured, dAb analyte
T12 construct: Same construct as wt-hCD40 with W109R (the residue of chimpanzee CD40); also called hCD40-M3; hCD40 M3 (W109R); not shown: human IgG1 Fc

[22] = target: T13, human CD40 (W109L, L121P) Fc fusion (human, UniProt P25942 21-193); assay: SPR, ProteOn XPR36; CD40-Fc captured, dAb analyte
T13 construct: Same construct as wt-hCD40 with W109L and L121P; also called hCD40-M4; hCD40 M4 (W109L, L121P); not shown: human IgG1 Fc

[23] = target: T14, human CD40 (H76R, W109L, L121P) Fc fusion (human); assay: SPR, ProteOn XPR36; CD40-Fc captured, dAb analyte
T14 construct: Same construct as wt-hCD40 with H76R, W109L and L121P; also called hCD40-M5; hCD40-M5 (H76R, W109L, L121P); not shown: human IgG1 Fc
T14 chain: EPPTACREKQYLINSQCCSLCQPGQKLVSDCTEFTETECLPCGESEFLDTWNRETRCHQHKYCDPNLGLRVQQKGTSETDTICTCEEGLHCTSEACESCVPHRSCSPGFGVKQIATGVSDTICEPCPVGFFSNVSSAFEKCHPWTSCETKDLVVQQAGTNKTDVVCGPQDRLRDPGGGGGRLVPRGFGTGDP

[24] = target: T15, wild type cynomolgus monkey CD40 Fc fusion (cynomolgus monkey (Macaca …)); assay: SPR, ProteOn XPR36; CD40-Fc captured, dAb analyte
T15 construct: also called wt-cCD40; wt-cyno-CD40; not shown: human IgG1 Fc
T15 chain: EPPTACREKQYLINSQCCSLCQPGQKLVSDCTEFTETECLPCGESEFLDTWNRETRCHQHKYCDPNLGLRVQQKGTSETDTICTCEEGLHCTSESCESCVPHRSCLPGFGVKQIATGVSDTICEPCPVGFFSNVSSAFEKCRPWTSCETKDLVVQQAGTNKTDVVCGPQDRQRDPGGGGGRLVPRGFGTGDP

[25] = target: T16, wild type human CD40 Fc fusion (human, UniProt P25942 21-193); assay: SPR, ProteOn XPR36; CD40-Fc captured, dAb analyte; 1:1 fit;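 as to Kd: CD40-Fc captured on anti-human IgG(Fc) surface of a GLC chip, buffer pH 7.1, sensorgrams double-referenced against surfaces without CD40-Fc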;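 as to koff: CD40-Fc captured on anti-human IgG(Fc) surface of a GLC chip, buffer pH 7.1, sensorgrams double-referenced against surfaces without CD40-Fc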;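 as to kon: CD40-Fc captured on anti-human IgG(Fc) surface of a GLC chip, buffer pH 7.1, sensorgrams double-referenced against surfaces without CD40-Fc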
T16 construct: also called wt-hCD40; not shown: human IgG1 Fc

[26] = target: T17, human CD40 (H76R) Fc fusion (human, UniProt P25942 21-193); assay: as above
T17 construct: also called hCD40-M1; hCD40 M1 (H76R); not shown: human IgG1 Fc

[27] = target: T16, wild type human CD40 Fc fusion; assay: SPR, ProteOn XPR36; CD40-Fc captured, dAb analyte; 1:1 fit; repeat
Description: as §4

Kd [1]: 0.78 nM and 1.5 nM
Kd [2]: 1.6 nM
Kd [3]: 2 nM
Kd [4]: 1.2 nM
Kd [5]: 1.6 nM
Kd [6]: 2.2 nM
Kd [7]: 1.9 nM
B1: BMS3h-217-23 (other)
VL: DIQMTQSPSSLSASVGDRVTITCRASHFIGSLLSWYQVKPGKAPKLLITYGSLLQSGVPSRFSGSGSGTDFTLTISSLQPEDFATYYCGQGVLWPATFGQGTTVEIKR
notes: domain antibody (dAb), single VK domain

binding result [8]: no binding
binding result [9]: no binding
binding result [10]: no binding
binding result [11]: binds
B2: BMS3h38-2-biotin (other)
VH: EVQLLASGGGLVQPGGSLRLSCAASGFTFEEEEMIWVRQAPGKGLEWVSAISGSGGSTYYADSVKGRFTISRDNSKNTLYLQMNSLRAEDTAVYYCGKEPFRYDYWGQGTLVTVSS
modifications: biotin-conjugated; site not stated
notes: Biotin conjugate of dAb BMS3h-38-2; also called biotin-conjugated dAb

binding result [12]: no binding (tested: 405 nM)
binding result [13]: no binding (tested: 405 nM)
binding result [14]: no binding (tested: 405 nM)
binding result [15]: no binding (tested: 405 nM)
binding result [16]: no binding (tested: 405 nM)
Kd [1]: 5.1 nM and 8 nM
Kd [2]: 7.2 nM
B3: BMS3h-38-2 (other)
VH: EVQLLASGGGLVQPGGSLRLSCAASGFTFEEEEMIWVRQAPGKGLEWVSAISGSGGSTYYADSVKGRFTISRDNSKNTLYLQMNSLRAEDTAVYYCGKEPFRYDYWGQGTLVTVSS
notes: domain antibody (dAb), single VH domain

binding result [17]: no binding
binding result [18]: no binding
binding result [19]: no binding
B4: BMS3h38-2C-P40Br (other)
VH: EVQLLASGGGLVQPGGSLRLSCAASGFTFEEEEMIWVRQAPGKGLEWVSAISGSGGSTYYADSVKGRFTISRDNSKNTLYLQMNSLRAEDTAVYYCGKEPFRYDYWGQGTLVTVSS
modifications: PEGylated; attachment residue not stated
notes: PEGylated form of dAb BMS3h-38-2; also called PEGylated anti-human CD40 dAb

Kd [25]: 5.07 nM
koff [25]: 0.000608 s⁻¹
kon [25]: 120000 M⁻¹ s⁻¹
Kd [26]: 7.15 nM
koff [26]: 0.001 s⁻¹
kon [26]: 140000 M⁻¹ s⁻¹
Kd [27]: 8.04 nM
koff [27]: 0.00114 s⁻¹
kon [27]: 142000 M⁻¹ s⁻¹
B5: BMS3h-38-2 (other)
VH: EVQLLASGGGLVQPGGSLRLSCAASGFTFEEEEMIWVRQAPGKGLEWVSAISGSGGSTYYADSVKGRFTISRDNSKNTLYLQMNSLRAEDTAVYYCGKEPFRYDYWGQGTLVTVSS
notes: Anti-human CD40 domain antibody (dAb), single VH domain
binding result [20]: no binding (tested: dAb tested up to 405 nM)
binding result [21]: no binding (tested: dAb tested up to 405 nM)
binding result [22]: no binding (tested: dAb tested up to 405 nM)
binding result [23]: no binding (tested: dAb tested up to 405 nM)
binding result [24]: no binding (tested: dAb tested up to 405 nM)

binding result [17]: no binding
binding result [18]: no binding
binding result [19]: no binding
B6: BMS3h-56-5C-40L (other)
VH: EVQLLESGGGLVQPGGSLRLSCAASGFTFRDYEMWWVRQAPGKGLERVSAINPQGTRTYYADSVMGRFTISRDNSKNTLYLQMNSLRAEDTAVYYCAKLPFTFDDWGQGTLVTVSS
modifications: PEGylated; attachment residue not stated
notes: PEGylated form of dAb BMS3h-56-5; also called PEGylated anti-human CD40 dAb
